Experimental data reported in paper PMC12227652 (Nature Communications, 2025).
Substitutions are numbered along the chain they refer to. Names may count otherwise. Like-named read-outs stand apart in the source and are kept apart here.

B1: MBP-TRAK1_(416-446,561-623) (domain or fragment, human, UniProt Q9UPV9 416-446, looked up)
chain: RSLTPSPMNIPGSNQSSAMNSLLSSCVSTPRGMSFSSRSYLPEKLQIVKPLEGSATLHHWQQLAQPHLGGILDPRPGVVTKGFRTLDVDLDEVY
B2: MBP-TRAK1_(416-446,561-623) W589D (domain or fragment, human, UniProt Q9UPV9 416-446, looked up)
chain: B1 chain with W60D
B3: MBP-TRAK1_(416-446,561-623) L597D (domain or fragment, human, UniProt Q9UPV9 416-446, looked up)
chain: B1 chain with L68D
B4: MBP-TRAK1_(416-431) (peptide, UniProt Q9UPV9 416-431, looked up)
chain: RSLTPSPMNIPGSNQS
B5: TRAK1_(569-623) (domain or fragment, human, UniProt Q9UPV9 569-623, looked up)
chain: YLPEKLQIVKPLEGSATLHHWQQLAQPHLGGILDPRPGVVTKGFRTLDVDLDEVY
B6: MIRO1_(1-591), full-length cytosolic human MIRO1 (domain or fragment, UniProt Q8IXI2 1-591, looked up)
chain: MKKDVRILLVGEPRVGKTSLIMSLVSEEFPEEVPPRAEEITIPADVTPERVPTHIVDYSEAEQSDEQLHQEISQANVICIVYAVNNKHSIDKVTSRWIPLINERTDKDSRLPLILVGNKSDLVEYSSMETILPIMNQYTEIETCVECSAKNLKNISELFYYAQKAVLHPTGPLYCPEEKEMKPACIKALTRIFKISDQDNDGTLNDAELNFFQRICFNTPLAPQALEDVKNVVRKHISDGVADSGLTLKGFLFLHTLFIQRGRHETTWTVLRRFGYDDDLDLTPEYLFPLLKIPPDCTTELNHHAYLFLQSTFDKHDLDRDCALSPDELKDLFKVFPYIPWGPDVNNTVCTNERGWITYQGFLSQWTLTTYLDVQRCLEYLGYLGYSILTEQESQASAVTVTRDKKIDLQKKQTQRNVFRCNVIGVKNCGKSGVLQALLGRNLMRQKKIREDHKSYYAINTVYVYGQEKYLLLHDISESEFLTEAEIICDVVCLVYDVSNPKSFEYCARIFKQHFMDSRIPCLIVAAKSDLHEVKQEYSISPTDFCRKHKMPPPQAFTCNTADAPSKDIFVKLTTMAMYPHVTQADLKSST

What was measured:
[1] = biological target: B6; assay: pull-down
[2] = biological target: B6; assay: pull-down; remark: listed apart in the source
[3] = biological target: MIRO1_(177-591) (human, UniProt Q8IXI2 177-591); assay: ITC
[4] = biological target: the molecule itself; assay: cryo-EM structure
[5] = biological target: the molecule itself; assay: mass photometry

B1
binding result [1]: binds

B2
binding result [2]: binds

B3
binding result [2]: binds

B4
Kd [3]: 10.9 to 15.9 µM
stoichiometry N [3]: 1

B5
binding result [4]: binds

B6
stoichiometry N [5]: 2
